Data set [1] has as its system purified recombinant human LOXL2. Put plainly: Amplex Red assay of LOXL2 enzymatic activity. Format: biochemical. As to the method:
A mouse anti-human LOXL2 antibody (AB0023) was obtained by immunization with full-length LOXL2 protein and purified by SEC-HPLC (Tosoh TSKGEL G3000SWXL 7.8×300). Analytical size exclusion chromatography was used to assess antibody stability and purity. Purified AB0023 was run on SDS-PAGE Coomassie (Invitrogen BT 4-12% Gels) reducing and non-reducing gels to assess purity. Potency was examined by ELISA to determine Kd, and effect on LOXL2 enzymatic activity was determined using an Amplex Red Assay (Molecular Probes/Invitrogen, Carlsbad, Calif.). Antibody concentration was measured by absorbance at 280 nm using an Extinction Coefficient Abs 0.1% of 1.4. Identity was assayed by isoelectric focusing (Invitrogen pH 3-10 IEF Gels). For safety analysis, endotoxin levels were measured at a sensitivity range of 0.01-1 EU/ml (Charles River EndoSafe PTS).

A short description of data set [2]: Pilot repeat-dose studies in cynomolgus monkeys. The data set is classed as in vivo. As to conditions: repeat dosing at 100 mg/kg.

purified recombinant human LOXL2, sequence (Q9Y4K0 318-774 limits assumed): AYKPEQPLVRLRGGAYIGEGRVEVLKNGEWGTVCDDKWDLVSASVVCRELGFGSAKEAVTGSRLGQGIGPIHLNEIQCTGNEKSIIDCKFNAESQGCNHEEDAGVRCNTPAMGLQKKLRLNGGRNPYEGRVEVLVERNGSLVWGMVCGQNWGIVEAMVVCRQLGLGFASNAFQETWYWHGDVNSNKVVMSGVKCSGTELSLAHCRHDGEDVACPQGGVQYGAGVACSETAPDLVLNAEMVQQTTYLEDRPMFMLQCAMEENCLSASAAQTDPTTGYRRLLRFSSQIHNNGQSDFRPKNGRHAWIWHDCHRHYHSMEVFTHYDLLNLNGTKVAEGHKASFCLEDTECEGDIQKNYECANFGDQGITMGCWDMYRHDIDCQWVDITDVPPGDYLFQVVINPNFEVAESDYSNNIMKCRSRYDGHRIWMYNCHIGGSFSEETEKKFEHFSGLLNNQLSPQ

B1: AB0024: humanized anti-LOXL2 variant of AB0023; heavy chain variable region SEQ ID NO:3, light chain SEQ ID NO:4 (antibody, listed as Mus musculus, V domains shown)
VH: QVQLVQSGAEVKKPGASVKVSCKASGYAFTYYLIEWVRQAPGQGLEWIGVINPGSGGTNYNEKFKGRATITADKSTSTAYMELSSLRSEDTAVYFCARNWMNFDYWGQGTTVTVSS
VL: DIVMTQTPLSLSVTPGQPASISCRSSKSLLHSNGNTYLYWFLQKPGQSPQFLIYRMSNLASGVPDRFSGSGSGTDFTLKISRVEAEDVGVYYCMQHLEYPYTFGGGTKVEIK
modifications: Humanized heavy chain; Humanized light chain
On to B1, for which the “mode of inhibition of LOXL2” value in data set [1] is “non-competitive allosteric inhibitors”. In data set [2], the tolerability result is on record as “well tolerated”.

(Values after patent US20110076272A1, “THERAPEUTIC METHODS AND COMPOSITIONS” (priority 2009, published 2011).)
